The record followed here is the supplement of paper PMC11246515.

The data set can be described thus: total protein half-life in vivo (active degradation + dilution); higher = more stable protein.
[1] abbreviates: E. coli NCM3722 delta-lon, growth: N-lim chemostat, doubling time 6 h.
Where [2] appears, read: E. coli NCM3722 delta-smpB, growth: N-lim chemostat, doubling time 6 h.
The mark [3] stands for this setting: wild type E. coli NCM3722, growth: C-lim chemostat, doubling time 3 h.
The mark [4] stands for this setting: wild type E. coli NCM3722, growth: C-lim chemostat, doubling time 6 h.
Where [5] appears, read: wild type E. coli NCM3722, growth: C-lim chemostat, doubling time 12 h.
Setting [6] is: wild type E. coli NCM3722, growth: N-lim chemostat, doubling time 6 h.
[7] abbreviates: wild type E. coli NCM3722, growth: N-lim chemostat, doubling time 12 h.
Where [8] appears, read: wild type E. coli NCM3722, growth: P-lim chemostat, doubling time 6 h.
Where [9] appears, read: wild type E. coli NCM3722, growth: P-lim chemostat, doubling time 12 h.
The mark [10] stands for this setting: E. coli NCM3722 delta-clpP delta-lon delta-hslV, growth: N-lim chemostat, doubling time 6 h.
The mark [11] stands for this setting: E. coli NCM3722 delta-clpP, growth: N-lim chemostat, doubling time 6 h.
Setting [12] is: E. coli NCM3722 delta-hslV, growth: N-lim chemostat, doubling time 6 h.

± gives the standard deviation of the averaged measurements.

With “MNNNDLFQASRRRFLAQLGGLTVAGMLGPSLLTPRRATAAQAATDAVISKEGILTGSHWGAIRATVKDGRFVAAKPFELDKYPSKMIAGLPDHVHNAARIRYPMVRVDWLRKRHLSDTSQRGDNRFVRVSWDEALDMFYEELERVQKTHGPSALLTASGWQSTGMFHNASGMLAKAIALHGNSVGTGGDYSTGAAQVILPRVVGSMEVYEQQTSWPLVLQNSKTIVLWGSDLLKNQQANWWCPDHDVYEYYAQLKAKVAAGEIEVISIDPVVTSTHEYLGREHVKHIAVNPQTDVPLQLALAHTLYSENLYDKNFLANYCVGFEQFLPYLLGEKDGQPKDAAWAEKLTGIDAETIRGLARQMAANRTQIIAGWCVQRMQHGEQWAWMIVVLAAMLGQIGLPGGGFGFGWHYNGAGTPGRKGVILSGFSGSTSIPPVHDNSDYKGYSSTIPIARFIDAILEPGKVINWNGKSVKLPPLKMCIFAGTNPFHRHQQINRIIEGLRKLETVIAIDNQWTSTCRFADIVLPATTQFERNDLDQYGNHSNRGIIAMKQVVPPQFEARNDFDIFRELCRRFNREEAFTEGLDEMGWLKRIWQEGVQQGKGRGVHLPAFDDFWNNKEYVEFDHPQMFVRHQAFREDPDLEPLGTPSGLIEIYSKTIADMNYDDCQGHPMWFEKIERSHGGPGSQKYPLHLQSVHPDFRLHSQLCESETLRQQYTVAGKEPVFINPQDASARGIRNGDVVRVFNARGQVLAGAVVSDRYAPGVARIHEGAWYDPDKGGEPGALCKYGNPNVLTIDIGTSQLAQATSAHTTLVEIEKYNGTVEQVTAFNGPVEMVAQCEYVPASQVKS”, the “total protein half-life in vivo” value runs as follows: under setting [1], 7.84 h; under setting [2], 5.54 h; under setting [3], 3.3 ± 0.074 h; under setting [4], 4.64 ± 2.7 h; under setting [5], 13.2 ± 1.9 h; under setting [6], 7.02 ± 0.15 h. Besides, the “total protein half-life in vivo” value under setting [7] was 14 ± 1.4 h, the “total protein half-life in vivo” value under setting [8] is 6.85 ± 0.67 h and the “total protein half-life in vivo” value under setting [9] is 12.6 ± 0.63 h.

For the sequence “MTFIKGLPLMLLTISLGCNAAVQPDRTRIVFNANDKATSLRIENQSDKLPYLAYSWIENEKGEKSDALLVALPPIQRLEPKATSQVRVVKQASTTQLPGDRETLFFYNMREIPPAPDKSSDHAILQVAIQSRIKLFWRPAALRKKAGEKVELQLQVSQQGNQLTLKNPTAYYLTIAYLGRNEKGVLPGFKTVMVAPFSTVNTNTGSYSGSQFYLGYMDDYGALRMTTLNCSGQCRLQAVEAK”, the “total protein half-life in vivo” value under setting [10] was over 8 h and the “total protein half-life in vivo” value under setting [7] amounted to 14.3 h.

As to “MTPEHLPTEQYEAQLAEKVVRLQSMMAPFSDLVPEVFRSPVSHYRMRAEFRIWHDGDDLYHIIFDQQTKSRIRVDSFPAASELINQLMTAMIAGVRNNPVLRHKLFQIDYLTTLSNQAVVSLLYHKKLDDEWRQEAEALRDALRAQNLNVHLIGRATKTKIELDQDYIDERLPVAGKEMIYRQVENSFTQPNAAMNIQMLEWALDVTKGSKGDLLELYCGNGNFSLALARNFDRVLATEIAKPSVAAAQYNIAANHIDNVQIIRMAAEEFTQAMNGVREFNRLQGIDLKSYQCETIFVDPPRSGLDSETEKMVQAYPRILYISCNPETLCKNLETLSQTHKVERLALFDQFPYTHHMECGVLLTAK”, the “total protein half-life in vivo” value reads like this: under setting [10], 6.08 ± 1.6 h; under setting [11], 5.19 ± 0.62 h; under setting [12], 4.85 ± 0.33 h; under setting [1], 5.53 ± 0.082 h; under setting [2], 5.35 ± 0.35 h; under setting [4], 6.89 ± 0.74 h. The “total protein half-life in vivo” value is, setting by setting: under setting [5], 12.6 ± 2.2 h; under setting [6], 4.83 ± 0.21 h; under setting [7], 11.3 ± 2.8 h; under setting [8], 5.56 ± 0.39 h; under setting [9], 13.8 ± 1.9 h.

For “MPTKPPYPREAYIVTIEKGKPGQTVTWYQLRADHPKPDSLISEHPTAQEAMDAKKRYEDPDKE [P0AAN5]”, the “total protein half-life in vivo” value is, setting by setting: under setting [11], 5.03 ± 0.57 h; under setting [12], 5.08 ± 0.48 h; under setting [1], 5.38 ± 1.4 h; under setting [2], 4.72 ± 0.16 h; under setting [3], 3.69 h; under setting [4], 3.08 h. For the same sequence, the “total protein half-life in vivo” value worked out at 7.61 h under setting [5]; 4.1 ± 0.042 h under setting [6]; 8.6 ± 1.8 h under setting [7]; 5.3 h under setting [8]; 9.63 ± 1.6 h under setting [9].

On to “MPPRRYNPDTRRDELLERINLDIPGAVAQALREDLGGTVDANNDITAKLLPENSRSHATVITRENGVFCGKRWVEEVFIQLAGDDVTIIWHVDDGDVINANQSLFELEGPSRVLLTGERTALNFVQTLSGVASKVRHYVELLEGTNTQLLDTRKTLPGLRSALKYAVLCGGGANHRLGLSDAFLIKENHIIASGSVRQAVEKASWLHPDAPVEVEVENLEELDEALKAGADIIMLDNFETEQMREAVKRTNGKALLEVSGNVTDKTLREFAETGVDFISVGALTKHVQALDLSMRFR”, for which the “total protein half-life in vivo” value reads like this: under setting [10], 4.6 ± 0.47 h; under setting [11], 5.46 ± 2.3 h; under setting [12], 4.1 ± 0.29 h; under setting [1], 6.13 ± 1.8 h; under setting [2], 4.05 ± 0.33 h; under setting [3], 2.86 ± 0.25 h. For the same sequence, the “total protein half-life in vivo” value by setting is: under setting [4], 5.827 ± 0.04 h; under setting [5], 8.46 ± 0.51 h; under setting [6], 3.72 ± 0.12 h; under setting [7], 7.1 ± 0.15 h; under setting [8], 5.5 ± 0.4 h; under setting [9], 9.73 ± 0.27 h.

On to “MTDKLTSLRQYTTVVADTGDIAAMKLYQPQDATTNPSLILNAAQIPEYRKLIDDAVAWAKQQSNDRAQQIVDATDKLAVNIGLEILKLVPGRISTEVDARLSYDTEASIAKAKRLIKLYNDAGISNDRILIKLASTWQGIRAAEQLEKEGINCNLTLLFSFAQARACAEAGVFLISPFVGRILDWYKANTDKKEYAPAEDPGVVSVSEIYQYYKEHGYETVVMGASFRNIGEILELAGCDRLTIAPALLKELAESEGAIERKLSYTGEVKARPARITESEFLWQHNQDPMAVDKLAEGIRKFAIDQEKLEKMIGDLL [P0A870]”, for which the “total protein half-life in vivo” value reads like this: under setting [10], 5.35 ± 0.57 h; under setting [11], 5.12 ± 0.34 h; under setting [12], 5.35 ± 0.39 h; under setting [1], 5.6 ± 0.23 h; under setting [2], 5.04 ± 0.11 h; under setting [3], 3.448 ± 0.0017 h. The “total protein half-life in vivo” value is, setting by setting: under setting [4], 5.81 ± 0.19 h; under setting [5], 11.1 ± 1.2 h; under setting [6], 5.14 ± 0.23 h; under setting [7], 9.23 ± 0.13 h; under setting [8], 6.18 ± 0.083 h; under setting [9], 13.7 ± 0.78 h.

With “MNIEELKKQAETEIADFIAQKIAELNKNTGKEVSEIRFTAREKMTGLESYDVKIKIM [P0AC92]”, the “total protein half-life in vivo” value by setting is: under setting [10], over 8 h; under setting [11], 5.88 ± 0.43 h; under setting [12], 6.62 ± 0.26 h; under setting [1], 6.72 ± 0.85 h; under setting [2], 5.86 ± 0.59 h; under setting [3], 2.98 ± 0.29 h. Also, the “total protein half-life in vivo” value runs as follows: under setting [4], 4.55 ± 2.8 h; under setting [5], 10 ± 1.4 h; under setting [6], 5.99 ± 1.4 h; under setting [8], 6.14 h.

For “MRYHGDMLLTTPVISTLKQNYPDAKIDMLLYQDTIPILSENPEINALYGISNKGAGTFDKIKNVLSLIKTLRANNYDLVINLTDQWMVALLVRCLPARMKISQLYGHRQHGIWKKSFTHLAPIHGTHIVERNLSVLEPLGITDFYTDTTMSYAEDCWKKMRRELDALGVKDHYVVIQPTARQIFKCWDNDKFSKVIDALQQRGYQVVLTCGPSADDLACVDEIARGCETKPITGLAGKTRFPELGALIDHAVLFIGVDSAPGHIAAAVKTPVISLFGATDHVFWRPWTENIIQFWAGNYQKMPTRHELDRNKKYLSVIPAEDVIAATEKLLPEDAPSADRNAQL”, the “total protein half-life in vivo” value runs as follows: under setting [10], 6.088 ± 0.042 h; under setting [11], 6.21 ± 0.39 h; under setting [12], 6.87 ± 0.63 h; under setting [2], 4.85 ± 0.32 h; under setting [3], 3.141 ± 0.0067 h; under setting [4], 6.09 ± 0.63 h. Moreover, the “total protein half-life in vivo” value is, setting by setting: under setting [5], 11.7 ± 0.39 h; under setting [6], 5.89 ± 0.19 h; under setting [7], 11.9 ± 0.99 h; under setting [8], 5.59 ± 0.42 h; under setting [9], 11.3 ± 1.1 h.
